5 molecules from paper PMC3170999 (Molecular cancer therapeutics, 2011) can be followed below.

Residue numbers refer to the chain shown, from its start.

One assay addresses Biotinylated human IGF1 (human, UniProt P05019, biotin). Description: flow cytometry on cells. For orientation: In flow cytometry, cells or beads pass a laser one at a time.
For another assay, the target named is Biotinylated human IGF2 (Homo sapiens, UniProt P01344, biotin). Description: flow cytometry on cells.
Assay [1] has as its target T1, Human IGF2 (Homo sapiens, UniProt P01344). Description: SPR.
The target of assay [2] is T2, Recombinant human IGF1 (Homo sapiens, UniProt P05019). The assay can be described thus: SPR. A general note: In SPR one partner is held on a chip, and binding of the other changes the refractive index at the surface.
Assay [3] concerns the target T1, Human IGF2. Description: SPR. This is another data set of the same source.
Assay [4] has as its target T2, Recombinant human IGF1. The assay can be described thus: SPR. The source holds these as a separate data set.

B1: scFv m708.2, yeast-displayed (scFv, V domains shown)
VH: QVQLQQPGAEVKKPGSSVKVSCKASGGTFSSYAISWVRQAPGQGLEWMGGIIPILGIANYAQKFQGRVTITADESTSTAYMELSSLRSEDTAVYYCARGPRGYSYNFDYWGQGTLVTVSS
VL: DIQMTQSPSSLSASVGDRVTIACRASQTISRYLNWYQQKPGKAPKLLIYAASSLQSGVSSRFSGSGSGTEFTLTISSLQPEDFATYFCQQTYSPPITFGQGTRLEIK
For orientation: Kd means the concentration at which binding is half-saturated. B1: the Kd with Biotinylated human IGF1 stood at 3.9 nM; with Biotinylated human IGF2, 1.1 nM.

B2: scFv m708.5, purified soluble (scFv, V domains shown)
VH: B1 VH with P7L, K13M, I54T, A58V, N59K, E74K, R87G, R98G, Y109N
VL: B1 VL with A22V, L33V, T72A
For orientation: koff means the first-order rate constant of dissociation. Consider B2, for which, in the assay with Human IGF2 [1], the Kd amounted to 0.061 nM and the koff was 2.5e-06 s⁻¹. Also, in the assay with Recombinant human IGF1 [2], the Kd is 0.2 nM and the koff was 0.00028 s⁻¹.

B3: scFv m708.2, purified soluble (scFv, V domains shown)
VH: B1 VH
VL: B1 VL
Consider B3, for which, in the assay with Human IGF2 [1], the Kd turned out to be 1.8 nM and the koff worked out at 0.0004 s⁻¹. In the assay with Recombinant human IGF1 [2], the Kd worked out at 2.2 nM and the koff was 0.0024 s⁻¹.

B4: scFv m708.5, yeast-displayed (scFv, V domains shown)
VH: B1 VH with P7L, K13M, I54T, A58V, N59K, E74K, R87G, R98G, Y109N
VL: B1 VL with A22V, L33V, T72A
Turning to B4, the Kd with Biotinylated human IGF1 worked out at 0.1 nM; with Biotinylated human IGF2, 0.041 nM.

B5: IgG1 m708.5 (antibody, V domains shown)
VH: B1 VH with P7L, K13M, I54T, A58V, N59K, E74K, R87G, R98G, Y109N
VL: B1 VL with A22V, L33V, T72A
With B5, the “fold change of the effective KD against the KD of scFv m708.5” value in the assay with Human IGF2 [3] was found to be 60 fold; with Recombinant human IGF1 [4] it was 1000 fold.
